# In patent publication US20250298013A1:
# Columns and labels:
# [1] = biological target: Background (Staphylococcus aureus); assay: SPRi, in-line blocking: IgG mix injected after thiolated PEG over a chip functionalised with thiolated protein A, (-) press load [Continued) C]
# [2] = biological target: Background (Staphylococcus aureus); assay: SPRi, in-line blocking: IgG mix injected after thiolated PEG over a chip functionalised with thiolated protein A, (+) press load (300 Pa) [Continued) E]
substance,measurement,setting,value
IgG mix (antibody),IgG change (Background curve) (%Reflectivity),[1],12
same,IgG change (Background curve) (%Reflectivity),[2],2
